Measured values taken from patent US9296811B2, “Methods for treating a tumor using an antibody that specifically binds HMW-MAA” (University of Pittsburgh—Of the Commonwealth System of …, priority 2010, dated 2016).
“Also recorded” adds a separate entry of the source.

What was measured:
[1] = test system: melanoma cell lines (Colo38, M21, SK-MEL-37, MV3, 1520); assay: MTT cell growth assay, vemurafenib and C21; assay type: cell-based, human
[2] = biological target: V600E mutated BRAF (Homo sapiens, UniProt P15056, V600E); conditions: cited from earlier work
V600E mutated BRAF, sequence (P15056 whole entry V600E): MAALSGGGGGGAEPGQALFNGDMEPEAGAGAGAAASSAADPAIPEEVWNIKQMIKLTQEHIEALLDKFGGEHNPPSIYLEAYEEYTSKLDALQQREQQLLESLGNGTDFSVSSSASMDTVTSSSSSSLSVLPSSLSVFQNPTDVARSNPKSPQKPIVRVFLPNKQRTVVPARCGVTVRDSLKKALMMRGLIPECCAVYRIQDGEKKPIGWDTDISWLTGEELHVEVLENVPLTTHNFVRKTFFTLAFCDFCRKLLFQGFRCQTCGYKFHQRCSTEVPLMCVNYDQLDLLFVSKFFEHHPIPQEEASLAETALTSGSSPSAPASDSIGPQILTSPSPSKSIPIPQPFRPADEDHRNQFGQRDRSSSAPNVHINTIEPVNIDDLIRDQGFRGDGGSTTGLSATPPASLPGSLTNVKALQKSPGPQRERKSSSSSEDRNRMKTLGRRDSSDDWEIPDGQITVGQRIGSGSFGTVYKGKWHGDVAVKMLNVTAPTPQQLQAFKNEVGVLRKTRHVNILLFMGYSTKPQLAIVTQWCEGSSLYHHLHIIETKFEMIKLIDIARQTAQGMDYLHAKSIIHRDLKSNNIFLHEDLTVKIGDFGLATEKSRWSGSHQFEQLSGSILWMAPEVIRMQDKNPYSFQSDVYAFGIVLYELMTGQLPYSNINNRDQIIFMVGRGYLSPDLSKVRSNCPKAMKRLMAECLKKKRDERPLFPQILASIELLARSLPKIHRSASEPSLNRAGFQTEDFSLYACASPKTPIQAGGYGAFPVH

[3] = test system: human melanoma BRAF(V600E)/CSPG4^+ xenografts; assay: Survival of mice bearing M21 xenografts, vemurafenib and C21; assay type: in vivo; conditions: M21 xenograft; vemurafenib 25 mg/kg orally twice a day for 13 days; C21 1 mg/mouse i.v. twice a week for 2 weeks; vs vemurafenib alone or vemurafenib+119
Method: FIG. 11. Improved response duration for vemurafenib in vivo. Human melanoma M21^BRAF(V600E)/CSPG4+ cells (2×10^6/mouse) were injected subcutaneously (s.c.) into 20 mice (day 0). By day 7, tumors were measurable, and mice were divided into four groups (5 mice/group) using a stratified randomization strategy. Mice received either vemurafenib, vemurafenib+C21, vemurafenib+119, or were untreated. Vemurafenib was delivered orally (25 mg/kg) twice a day for 13 days, while C21 or 119 were injected i.v. (1 mg/mouse) twice a week for 2 weeks. All mice were monitored for survival.

[4] = test system: BRAF^V600E and BRAF^WT melanoma cell; assay: MTT growth inhibition of melanoma cell lines by C21; assay type: cell-based, human; conditions: BRAF^V600E and BRAF^WT cells, 3, 5 days
Method: FIG. 7. […] The indicated cells were seeded in triplicate in 96-well plates (2.5×10^3/well) and treated for 3, 5 days with C21 and 119 in RPMI 1640/1% FCS. Living cells were detected using MTT assays. The results are expressed as percent inhibition of cell growth, with untreated cells representing 100%. Mean values±SD were calculated from two independent experiments.

[5] = test system: EGFR and PDGFRα; assay: Activation of EGFR and PDGFRα in melanoma cells after C21; assay type: cell-based, human; conditions: acquired resistance to BRAF inhibitor
[6] = test system: melanoma cells; assay: Prevention/delay of acquired resistance of melanoma cells to vemurafenib in vitro; assay type: cell-based, human
Method: FIG. 13. Prevention/delay of acquired resistance of melanoma cells to vemurafenib. Melanoma cells were seeded in 6-well plates (2.5×10^4 cells/well) containing 2 ml/well RPMI 1640/10% FCS. […] Cells received fresh growth medium every 4 days containing the appropriate treatment concentrations, for 28 days. Cells in randomly selected fields were photographed at different timepoints using a Zeiss Inverted Fluorescence Microscope
In addition, the results presented in FIG. 13 evidences that treatment with C21 delayed resistance to vemurafenib up to 28 days in vitro, at which point the rate of cell growth was unaffected by the presence or absence of vemurafenib (10 μM) in the absence of C21.

[7] = test system: human melanocytic lesions; assay: Immunohistochemical staining of frozen sections of human melanocytic lesions with C21; assay type: binding; conditions: benign pigmented nevus, primary melanoma, metastatic melanoma
Source text: FIG. 6A-6F. Digital images of immunohistochemical staining of frozen sections of human melanocytic lesions with C21.

[8] = test system: normal human organ tissues; assay: IHC staining of normal human organ tissue microarray with C21 (cross-reactivity); assay type: binding; conditions: for IHC Result: normal human tissue, C21 4 μg/mL
[9] = biological target: T1, CSPG4 (Homo sapiens, UniProt Q6UVK1); assay: FACS reactivity of C21 with established and patient-derived melanoma cell lines; assay type: binding; conditions: established or patient-derived lines containing BRAF^V600E or BRAF^WT
T1 construct: Representative FACS analysis of CSPG4 expression by melanoma cell lines using CSPG4-specific C21 and PE-conjugated anti-human IgG; endogenous in cells; host or cells: established (1520, 836, Colo38, M21, MEL526, MV3, SK-MEL-28, SK-MEL-37, WM1158) and patient-derived (Mel-JR, Mel-KD, pre/post vemurafenib) human melanoma cell lines
T1 sequence (Q6UVK1 30-2322): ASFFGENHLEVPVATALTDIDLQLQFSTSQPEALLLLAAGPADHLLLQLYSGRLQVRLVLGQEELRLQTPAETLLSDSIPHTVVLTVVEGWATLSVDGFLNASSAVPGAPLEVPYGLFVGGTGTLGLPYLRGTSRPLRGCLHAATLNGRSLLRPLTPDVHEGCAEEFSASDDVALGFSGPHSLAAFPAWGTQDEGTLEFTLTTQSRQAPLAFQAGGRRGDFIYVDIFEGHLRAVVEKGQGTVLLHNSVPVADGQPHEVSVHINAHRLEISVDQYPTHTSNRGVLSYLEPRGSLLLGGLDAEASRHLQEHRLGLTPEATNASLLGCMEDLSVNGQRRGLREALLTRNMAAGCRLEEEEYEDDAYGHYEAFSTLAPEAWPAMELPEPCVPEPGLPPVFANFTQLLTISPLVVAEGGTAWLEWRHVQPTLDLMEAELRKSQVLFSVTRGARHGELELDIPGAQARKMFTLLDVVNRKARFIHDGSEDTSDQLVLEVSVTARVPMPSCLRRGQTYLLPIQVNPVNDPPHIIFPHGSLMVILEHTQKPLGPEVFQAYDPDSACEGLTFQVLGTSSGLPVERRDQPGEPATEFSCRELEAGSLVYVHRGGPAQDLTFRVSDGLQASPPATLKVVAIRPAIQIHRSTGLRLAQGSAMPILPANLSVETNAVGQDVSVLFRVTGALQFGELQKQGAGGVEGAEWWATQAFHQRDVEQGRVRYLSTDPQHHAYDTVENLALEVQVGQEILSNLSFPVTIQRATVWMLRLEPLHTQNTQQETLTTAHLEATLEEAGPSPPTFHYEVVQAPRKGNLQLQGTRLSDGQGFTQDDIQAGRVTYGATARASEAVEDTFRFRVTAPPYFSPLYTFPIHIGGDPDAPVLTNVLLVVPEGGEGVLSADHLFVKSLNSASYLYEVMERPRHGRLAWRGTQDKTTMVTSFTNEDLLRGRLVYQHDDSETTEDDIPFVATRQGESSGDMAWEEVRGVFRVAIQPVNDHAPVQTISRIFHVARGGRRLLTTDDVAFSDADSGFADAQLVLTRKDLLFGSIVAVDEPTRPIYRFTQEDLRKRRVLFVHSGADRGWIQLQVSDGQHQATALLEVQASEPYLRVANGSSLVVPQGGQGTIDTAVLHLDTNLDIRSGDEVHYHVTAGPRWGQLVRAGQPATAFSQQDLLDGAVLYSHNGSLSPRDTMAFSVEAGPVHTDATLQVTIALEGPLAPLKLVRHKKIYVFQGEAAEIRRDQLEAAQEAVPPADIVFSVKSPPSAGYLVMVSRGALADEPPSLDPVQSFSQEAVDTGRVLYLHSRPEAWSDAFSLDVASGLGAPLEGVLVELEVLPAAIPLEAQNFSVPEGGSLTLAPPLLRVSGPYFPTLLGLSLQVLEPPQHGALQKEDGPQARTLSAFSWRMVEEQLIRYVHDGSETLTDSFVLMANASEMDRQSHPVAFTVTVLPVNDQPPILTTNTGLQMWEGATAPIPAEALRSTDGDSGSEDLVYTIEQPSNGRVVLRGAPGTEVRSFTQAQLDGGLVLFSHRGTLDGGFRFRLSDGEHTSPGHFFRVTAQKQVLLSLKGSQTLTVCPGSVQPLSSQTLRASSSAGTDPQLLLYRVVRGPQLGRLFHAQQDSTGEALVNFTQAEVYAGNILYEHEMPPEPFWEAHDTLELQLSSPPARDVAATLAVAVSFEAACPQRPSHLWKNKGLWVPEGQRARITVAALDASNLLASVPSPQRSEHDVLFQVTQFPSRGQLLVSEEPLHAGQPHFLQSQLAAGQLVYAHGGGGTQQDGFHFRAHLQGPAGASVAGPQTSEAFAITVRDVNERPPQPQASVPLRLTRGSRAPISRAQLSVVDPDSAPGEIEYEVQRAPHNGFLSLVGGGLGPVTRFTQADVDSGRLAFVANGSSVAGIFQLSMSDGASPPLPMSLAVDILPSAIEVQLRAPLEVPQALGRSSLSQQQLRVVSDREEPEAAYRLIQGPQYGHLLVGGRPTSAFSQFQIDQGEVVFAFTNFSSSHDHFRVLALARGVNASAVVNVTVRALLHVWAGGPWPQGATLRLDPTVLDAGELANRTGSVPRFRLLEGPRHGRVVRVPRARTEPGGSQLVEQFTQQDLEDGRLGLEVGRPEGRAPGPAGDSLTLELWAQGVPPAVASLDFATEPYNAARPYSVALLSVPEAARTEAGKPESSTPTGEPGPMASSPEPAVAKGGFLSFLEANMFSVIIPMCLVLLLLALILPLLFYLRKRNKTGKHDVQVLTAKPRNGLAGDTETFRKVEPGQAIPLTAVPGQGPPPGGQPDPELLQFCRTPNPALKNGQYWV
Source text: FIG. 5A to 5B. […] (FIG. 5A) Representative FACS analysis of CSPG4 expression by melanoma cell lines using CSPG4-specific C21 and PE-conjugated anti-human IgG. 119 was used as an isotype control. (FIG. 5B) A panel of melanoma cell lines bound by C21. *Percentage of CSPG4^+ cells. MFI: mean fluorescence intensity. The top section (1520, 836, Colo38, M21, MEL526, MV3, KS-MEL-28, SK-MEL-37, and WM1158) are established melanoma cell lines; The bottom section (MeI-JR(pre), MEL-JR(post), Mel-KD(pre), and Mel-KD(post)) are patient-derived human melanoma cell lines; pre: before vemurafenib (PLX4032) treatment, post: after vemurafenib (PLX4032) treatment.
A fully human mAb, scFc-FcC21 was produced by combining the HMW-MAA (CSPG4)-specific single chain of variable regions of heavy and light chains (scFv) to a Fc portion of IgG1 at the DNA level.

CCCS(=O)(=O)Nc1ccc(F)c(C(=O)c2c[nH]c3ncc(-c4ccc(Cl)cc4)cc23)c1F [vemurafenib, Vemurafenib]
cell growth ([1]; BRAF^WT MV3 cells, vemurafenib 500 nM): did not affect | response rate ([2]; 32 BRAF mutated advanced melanoma patients, phase II study (Flaherty et al 2010)): 70% | tumor regression and overall survival ([2]; Phase I clinical trials, advanced melanoma patients with the V600E BRAF mutation): effective in promoting tumor regression and increasing overall survival | median duration of response ([2]; melanoma patients treated with BRAF selective inhibitor): ~8 months

B1: C21: fully human mAb: HMW-MAA (CSPG4)-specific scFv combined to a Fc portion of IgG1; SEQ ID NOs: 3 and 4 (antibody, listed as Homo sapiens, V domains shown)
VH: QVQLVQSGAEVKKPGSSVKVSCKASGGTFSSYAISWVRQAPGQGLEWMGGIIPIFGTANYAQKFQGRVTITADESTSTAYMELSSLRSDDTAVYYCARALDPITFDSWGQGTLVTVSR
VL: SELTQDPAVSVALGQTVRITCQGDSLRSYYASWYQQKPGQAPVLVIYGKNNRPSGIPDRFSGSSSGNTASLTITGAQAEDEADYYCNSRDSSGNHVVFGGGTKLTVLGRS
survival of mice [3]: prolonging the survival | cell growth ([1]; 1520 cells negative for CSPG4, C21 0.1 mg/mL): did not affect | inhibition of melanoma cell growth in vitro [4]: Growth inhibition; also recorded: inhibited | activation of EGFR and PDGFRα [5]: down-regulating activation | delay of resistance to vemurafenib in vitro ([6]; C21 0.1 mg/mL with vemurafenib increasing 500 to 10,000 nM): up to 28 days | onset of acquired resistance to vemurafenib ([6]; melanoma cell line 1520, BRAF^V600E positive, CSPG4 negative): did not delay | IHC staining of melanocytic lesions [7]: homogeneous cytoplasmic and cytoplasmic membrane staining | IHC Result ([8]; Cerebellum): negative | IHC Result ([8]; Cerebrum): negative | IHC Result ([8]; Colon): negative | IHC Result ([8]; Esophagus): negative | recognition of a panel of normal human organ tissues ([8]; FIG. 6, Table 2): not a panel of normal human organ tissues | IHC Result ([8]; Heart): negative | IHC Result ([8]; Kidney): negative | IHC Result ([8]; Liver): negative | IHC Result ([8]; Lung): negative | IHC Result ([8]; Lymph node): negative | IHC Result ([8]; Ovary): negative | IHC Result ([8]; Pancreas): negative | IHC Result ([8]; Peripheral nerve): negative | IHC Result ([8]; Pituitary gland): negative | IHC Result ([8]; Placenta): negative | IHC Result ([8]; Prostate): negative | IHC Result ([8]; Salivary gland): negative | IHC Result ([8]; Skeletal muscle): negative | IHC Result ([8]; Skin): negative | IHC Result ([8]; Small intestine): negative | IHC Result ([8]; Smooth muscle): negative | IHC Result ([8]; Spinal cord): negative | IHC Result ([8]; Spleen): negative | IHC Result ([8]; Stomach): negative | IHC Result ([8]; Testis): negative | IHC Result ([8]; Thymus): negative | IHC Result ([8]; Thyroid gland): negative | IHC Result ([8]; Ureter): negative | IHC Result ([8]; Uterine cervix): negative | reactivity with human melanoma cell lines [9]: Broad reactivity | reactivity with human melanoma cell lines ([9]; listed as scFv-FcC21 (C21)): able to recognize
